The subject of series [1] is A549 cells. Put plainly: Mitochondrial membrane potential analysis with JC-1 dye. Conditions: dose dependent. It is filed as cell-based, human. As for the experimental part: After having determined the role of the targeting VIP peptide and the cathepsin cleavable linker we investigated the role of the apoptotic BID peptide. In this regard, we monitored the mitochondrial membrane potential of the cells on treatment with fusion protein using JC-1 dye.
Aliquots of cell suspensions were incubated with 4 μM of JC-1, a specific MMP dependent fluorescence dye [Hortelano S. et al., FEBS Lett, 1997, 411: 77-82], for 30 min at 37° C. and washed once in PBS. Mitochondrial depolarization was qualitatively estimated by fluorescence microscopy with a long-pass filter. […] JC-1 forms aggregates in cells with a high red fluorescence (585 nm) indicating a normal MMP. MMP loss results in a reduction in red fluorescence with a concurrent gain in green fluorescence (530 nm) as the dye shifts from aggregates to monomeric state. Therefore, retention of the dye in the cells can be monitored through the increase in green fluorescence. The fluorescence was measures using Varioskan spectrofluorimeter (Thermo Electron Corporation, Waltham, Mass. USA) and the data was converted to density plots.

For series [2], the target named is T1, recombinant human cathepsin D (Homo sapiens, UniProt P07339).
T1 construct: purchased R&D Systems, Abingdon, UK
Put plainly: Cleavage at the linker site with recombinant human cathepsin D, followed by LC-MS. The class given is biochemical. Conditions: cathepsin D at a ratio of ~400:1 (w/w), pH 3.5, 37° C. As for the experimental part:
To evaluate the role of the linker used we carried out an in vitro digestion of the protein with cathepsin D at a ratio of ˜400:1 (w/w) and followed the cleavage by mass spectrometry as a function of time (FIG. 16). The first cleavage occurred at the linker by around 30 minutes of treatment with the protease, giving two peptides of 3914.4 Da (FIGS. 17a) and 4477 Da (FIG. 17b), which corresponded to M (1-34) L (expected mass 3915.5 Da) and L (35-71) H (expected mass 4475 Da) peptides respectively although the majority of the protein was still intact (FIG. 17c), which justified our design of the protein. Subsequently, the protein was cleaved at other sites as mapped by mass spectrometry till 2 H of digestion (FIGS. 18a-e, 19).
LC/MS analyses were carried out using a Waters 2695 high-perfomance liquid chromatography (HPLC) system (Milford, USA) and Micromass Quattro Micro mass spectrometer (Micromass, UK) using a ZORBAX Eclipse XDB-C18 (4.6×150 mm, 5 μM) column. Mobile phase solvents were 0.1% HCOOH in Milli Q Water (A) and 0.1% HCOOH in Acetonitrile (B). Fusion protein was eluted using a linear gradient program: 0 min 100% A; 60 min 100% B; 60-75 min 100% A, at a constant flow rate of 1.2 mL min^−1, and a volume of 50 μl was directed to the detector of the mass spectrometer. […]

Series [3] deals with normal murine cell line, NIH3T3. Put plainly: MTT cytotoxicity assay, NIH3T3. The class given is cell-based, mouse. The conditions noted are these: NIH3T3, 24 h treatment. As for the experimental part: Subsequently, cytotoxicity of this protein was determined on cell lines over expressing the VIP receptor like colon carcinoma cell line, HT29 and non small cell lung carcinoma cell line, A549 and compared with a normal murine cell line, NIH3T3, by a quantitative MTT assay. […] Different sensitivities of the two cell lines may be attributed to the differential expression of the VPAC1 receptors and the inherent sensitivity of the cell lines.
Cells were seeded in 96-well microplates, followed by the addition of various concentrations of the fusion protein. After a 24-hour incubation, the MTT assay was performed according to the method of Mosmann [Mosmann T, J Immunol. Methods, 1983, 55-63]. Serial dilutions of chemotherapeutic agents prepared by the Multiplication method were placed in a 96-well microplate. Since the cell lines employed in the present study had different proliferation rates, the number of cultured cells was adjusted to a density that allowed the untreated control cells to grow exponentially. […] Then 200 μl of DMSO was added, and the absorbance was determined at a wavelength of 540 nm using an ELISA reader. Results were expressed as the percent survival of the control experiments in which the cells were not exposed to any protein. […]
(In general: Tetrazolium dyes change colour on reduction, which living cells bring about.)

Series [4] addresses T2, VPAC 1 receptors expressed on A549 cells (Homo sapiens, UniProt P32241).
T2 construct: the receptors were overexpressed in the A549 cell line; endogenous in cells; host or cells: A549 human lung carcinoma cells (acetone-fixed on slides)
T2 sequence (P32241 31-457): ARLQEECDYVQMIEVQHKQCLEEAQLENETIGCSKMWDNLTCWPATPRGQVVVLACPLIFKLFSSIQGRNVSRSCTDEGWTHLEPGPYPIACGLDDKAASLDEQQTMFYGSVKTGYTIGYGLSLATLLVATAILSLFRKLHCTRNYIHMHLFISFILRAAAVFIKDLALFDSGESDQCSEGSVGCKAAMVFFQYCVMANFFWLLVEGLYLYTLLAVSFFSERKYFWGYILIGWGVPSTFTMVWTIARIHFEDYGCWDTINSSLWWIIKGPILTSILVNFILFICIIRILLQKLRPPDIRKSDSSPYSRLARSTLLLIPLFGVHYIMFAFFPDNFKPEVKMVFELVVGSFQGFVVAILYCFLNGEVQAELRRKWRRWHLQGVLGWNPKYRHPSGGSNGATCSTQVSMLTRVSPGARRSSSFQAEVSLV
Put plainly: Immunocytochemical staining for cell surface receptors on A549 cells. The class given is binding. As for the experimental part:
Similarly, when, the cells were treated with fusion protein and immuno-stained with anti-BID. […] A similar observation was made when A549 cells were pre-treated with VIP antagonist, VIP (10-28) followed by fusion protein and immunostaining with anti-BID (FIG. 15e).
Cultured (A549 human lung carcinoma) cells were detached with trypsin/EDTA and pelleted by low-speed centrifugation. The cells were resuspended in PBS. Cell suspensions were coated onto poly-L-lysine coated glass slides, dried and then fixed for 10 min in acetone at −20° C. After drying for 2 h, slides were rinsed in PBS and then treated for 5 min with water/H2O2 in order to block endogenous peroxidase. Slides were again rinsed again in PBS and treated with normal rabbit and goat serum to block background staining. Slides were then incubated with antagonist, VIP(10-28) and/or fusion protein for 1 hr each. Slides were again washed with PBS and incubated with rabbit-anti-BID antibody (dilution 1:1000) or goat anti-VPAC 1 antibody (dilution 1:1000) for 1 h. Slides were again washed in PBS and incubated with […] IgG peroxidase labelled antibodies for anti-BID and anti-VPAC 1 primary antibodies respectively, for 1 h followed by addition of the 3,3′-diaminobenzidine-tetrachloride (DAB) substrate and hydrogen peroxide in PBS. […]

Usually IC50 stands for the midpoint of a concentration-inhibition curve.

T1 sequence (P07339 65-412): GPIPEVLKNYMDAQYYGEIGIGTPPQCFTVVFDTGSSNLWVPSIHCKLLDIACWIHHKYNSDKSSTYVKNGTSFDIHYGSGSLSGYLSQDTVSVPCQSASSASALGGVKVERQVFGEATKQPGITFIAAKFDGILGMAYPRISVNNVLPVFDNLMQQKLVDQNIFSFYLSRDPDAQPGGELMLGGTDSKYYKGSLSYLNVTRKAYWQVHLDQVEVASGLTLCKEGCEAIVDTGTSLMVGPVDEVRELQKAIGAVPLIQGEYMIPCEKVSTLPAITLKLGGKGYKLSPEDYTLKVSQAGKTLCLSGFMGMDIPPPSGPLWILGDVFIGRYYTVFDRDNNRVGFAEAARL

B1: fusion protein: 71 amino acid recombinant polypeptide: VIP, cathepsin cleavable linker SLLIARRMPNFN, BH3 domain of BID, His tag (SEQ ID NO: 10) (protein)
chain: MHSDAVFTDNYTRLRKQMAVKKYLNSILNGSSLLIARRMPNFNEDIIRNIARHLAQVGDSMDRLEHHHHHH
modifications: This amino acid sequence was artificially generated using naturally occurring mature human VIP peptide produced in E.coli as fusion protein
Turning to B1, the “effect on mitochondrial membrane potential” value in series [1] is on record as “decreasing the mitochondrial membrane potential”. Also, the “time of first cleavage at the linker” value in series [2] is given as “around 30 minutes”. Moreover, the IC50 in series [3] is greater than 30 µM. The “availability of VPAC-1 receptors to anti VPAC-1 after pre-treatment” value in series [4] (A549 cells pre-treated, then anti-VPAC-1 immunostaining) is “significant loss in the immunostained cell population”. The “immunostaining with anti-BID after treatment of cells” value in series [4] (A549 cells treated with fusion protein, anti-BID) is “localization of the protein on the cells”.

These data come from US20100184651A1, “TARGETED FUSION PROTEINS FOR CANCER THERAPY” (Dabur Pharma Limited, priority 2005, published 2010).
